Laboratory results reported in article PMC4971505 (2016).

Columns and labels:
[1] = biological target: T1, M1 muscarinic acetylcholine receptor (Homo sapiens, UniProt P11229); test: 3H-NMS radioligand pseudocompetition binding (allosteric model)
T1 chain: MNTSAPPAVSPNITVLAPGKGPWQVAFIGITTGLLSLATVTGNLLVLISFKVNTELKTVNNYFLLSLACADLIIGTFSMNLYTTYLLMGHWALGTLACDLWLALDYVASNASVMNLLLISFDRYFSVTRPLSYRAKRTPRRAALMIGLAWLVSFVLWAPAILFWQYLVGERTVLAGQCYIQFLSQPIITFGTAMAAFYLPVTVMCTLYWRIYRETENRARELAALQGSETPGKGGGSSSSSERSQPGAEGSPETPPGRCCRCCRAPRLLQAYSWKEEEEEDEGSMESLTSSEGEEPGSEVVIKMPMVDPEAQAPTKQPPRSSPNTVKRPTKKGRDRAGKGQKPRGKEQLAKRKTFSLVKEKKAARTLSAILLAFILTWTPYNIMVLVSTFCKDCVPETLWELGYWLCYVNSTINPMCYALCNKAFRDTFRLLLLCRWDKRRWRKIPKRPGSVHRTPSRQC

[2] = biological target: M3 muscarinic acetylcholine receptor (Homo sapiens, UniProt P20309); test: as above
Sequence of M3 muscarinic acetylcholine receptor (P20309 whole entry): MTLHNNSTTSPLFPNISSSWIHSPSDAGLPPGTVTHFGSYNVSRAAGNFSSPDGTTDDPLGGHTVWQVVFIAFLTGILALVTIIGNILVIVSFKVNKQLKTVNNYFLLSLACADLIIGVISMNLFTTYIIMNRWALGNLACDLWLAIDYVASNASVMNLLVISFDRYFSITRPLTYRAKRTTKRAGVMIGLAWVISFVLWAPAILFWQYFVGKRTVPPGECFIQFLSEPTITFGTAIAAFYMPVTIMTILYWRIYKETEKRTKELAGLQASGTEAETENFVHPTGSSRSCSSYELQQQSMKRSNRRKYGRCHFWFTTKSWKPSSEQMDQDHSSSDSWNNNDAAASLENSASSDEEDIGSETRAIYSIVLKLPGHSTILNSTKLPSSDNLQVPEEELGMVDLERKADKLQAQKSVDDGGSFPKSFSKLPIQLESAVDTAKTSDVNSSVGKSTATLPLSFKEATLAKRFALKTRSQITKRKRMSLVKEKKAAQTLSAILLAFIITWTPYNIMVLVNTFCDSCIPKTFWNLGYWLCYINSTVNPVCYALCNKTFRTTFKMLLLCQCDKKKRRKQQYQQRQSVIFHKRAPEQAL

- Kd [1]: 231 nM
- Kd [2]: 144 nM
B1: SLURP-2 (protein)
chain: IWCHQCTGFGGCSHGSRCLRDSTHCVTTATRVLSNTEDLPLVTKMCHIGCPDIPSLGLGPYVSIACCQTSLCNHD
